These results are taken from PMC7819943, “Rice protein-binding microarrays: a tool to detect cis-acting elements near promoter regions in rice”.

For one data set, the target named is OsWRKY34 (Oryza sativa, UniProt Q0JBA9 1-250). In words: EMSA; EMSA: 5 ug protein, 40 fmol FAM-dsDNA, 1 ug poly(dI-dC), 1X binding buffer (Pierce), 2.5% glycerol, 0.05% NP-40, 20 ul, 1 h room temperature; 6% acrylamide gel. The settings on record: protein: recombinant; tags: N-terminal polyhistidine and DsRed monomer fusion (pET32a); label: 5' FAM; blunt.
Another data set addresses T1, OsSMF1 (Oryza sativa, UniProt Q6ZLB0 1-436).
T1 sequence: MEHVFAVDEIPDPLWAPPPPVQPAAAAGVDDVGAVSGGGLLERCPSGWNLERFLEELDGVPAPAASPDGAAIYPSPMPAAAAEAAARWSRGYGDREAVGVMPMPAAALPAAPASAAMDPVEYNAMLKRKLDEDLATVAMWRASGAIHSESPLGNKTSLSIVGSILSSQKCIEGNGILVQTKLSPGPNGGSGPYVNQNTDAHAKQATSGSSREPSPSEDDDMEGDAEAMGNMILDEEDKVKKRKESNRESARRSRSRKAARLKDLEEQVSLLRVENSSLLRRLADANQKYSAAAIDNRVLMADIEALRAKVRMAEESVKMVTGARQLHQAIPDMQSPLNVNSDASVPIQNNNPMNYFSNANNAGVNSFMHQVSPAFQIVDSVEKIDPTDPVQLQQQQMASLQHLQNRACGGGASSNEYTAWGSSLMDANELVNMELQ
The data set is described as above. The settings on record: protein: recombinant; tags: N-terminal polyhistidine and DsRed monomer fusion (pET32a); chain copies: 2; label: 5' FAM; blunt.

Sequence of OsWRKY34 (Q0JBA9 entry or part of it): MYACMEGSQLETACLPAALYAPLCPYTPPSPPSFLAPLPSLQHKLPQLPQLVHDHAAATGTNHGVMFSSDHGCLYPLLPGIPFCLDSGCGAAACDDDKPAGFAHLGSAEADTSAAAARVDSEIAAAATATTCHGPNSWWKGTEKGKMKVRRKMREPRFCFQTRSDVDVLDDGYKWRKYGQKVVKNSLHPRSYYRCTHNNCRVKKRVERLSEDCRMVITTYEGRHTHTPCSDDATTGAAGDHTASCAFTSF

B1: Os01g0311500_18 (dsDNA)
DNA 1: TTGACGCCGTTGACTTTTTAGTACATGTTTGACCATTCGT
DNA 2: ACGAATGGTCAAACATGTACTAAAAAGTCAACGGCGTCAA
Consider B1, for which the binding result with OsWRKY34 was “binds”.

B2: Os01g0393100_8 (ONAC026 promoter probe) (dsDNA)
DNA 1: CTGGAATCTGAGGGGAACCACGTCACGTACACAAGTATAT
DNA 2: ATATACTTGTGTACGTGACGTGGTTCCCCTCAGATTCCAG
Regarding B2, the binding result in the data set with OsSMF1 is “binds”.

B3: Os05g0415400_39 (ONAC024 promoter probe) (dsDNA)
DNA 1: GATAATGAGTCAGTCCTCTTGTCGATACTCCGCCGGTATG
DNA 2: CATACCGGCGGAGTATCGACAAGAGGACTGACTCATTATC
Take B3: the binding result with OsSMF1 is on record as “binds”.
